# According to US6903185:
# pKd: −log10 of the molar value.
# How the values were obtained:
# [1] = target: NRE peptide (three-finger Zif268 variant) (synthetic) (UniProt P08046); assay: cell_activity; settings: 293 cells
# [2] = target: 268//NRE (six-finger fusion, longer linker) (synthetic) (UniProt P08046); assay: cell_activity; settings: VP16-activated transcription, 293 cells
# [3] = target: 268/NRE (six-finger fusion, shorter linker RQKDGERP) (synthetic) (UniProt P08046); assay: cell_activity; settings: 293 cells
# [4] = target: Zif268 and NRE peptides co-expressed as separate chains (synthetic) (UniProt P08046+P08046); assay: cell_activity; settings: co-expression of unlinked peptides; 293 cells
# [5] = target: 268//NRE (six-finger fusion, Zif268 fingers - longer linker - NRE fingers) (synthetic) (UniProt P08046); assay: EMSA; settings: room temp
# [6] = target: NRE peptide (three-finger Zif268 variant selected by phage display) (synthetic) (UniProt P08046); assay: EMSA
sequence,measurement,setting,value
AAGGGTTCA (double strand) [N site in luciferase reporter promoter],activity (fold repression),[1],1.9
AAGGGTTCAGGCGTGGGCG (double strand) [N/Z site in luciferase reporter promoter],activity (fold repression),[2],72
same,activity (fold repression),[3],68
same,activity (fold repression),[1],1.8
same,activity (fold repression),[4],8.5
AAGGGTTCAGTGCGTGGGCG (double strand) [N//Z site in luciferase reporter promoter],activity (fold repression),[2],47
same,activity (fold repression),[3]; linker modelled too short for all six fingers to bind,22
same,activity (fold repression),[1],2.7
GTGTGTGTGTGATCTGCGTGGGCGGTAAG (double strand) [Z site],pKd,"[5]; exact Kd not determined, smeared band",11.00
TCTGCAAGGGTTCAGCGTGGGCGGTAAG (double strand) [NZ site],pKd,"[5]; calculated from koff/kon, direct titration <1.0 pM, pH 7.0, 100 mM NaCl, 5 mM MgCl2, Zn",14.68
same,pKd,[6]; apparent Kd with 0.1 nM Zif268 prebound to neighboring site,10.22
same,pKd,"[6]; apparent Kd, NRE peptide alone",9.74
TCTGCAAGGGTTCAGGCGACACCAACCAA (double strand) [N site],pKd,[5],9.72
TCTGCAAGGGTTCAGGCGTGGGCGGTAAG (double strand) [N/Z site],pKd,"[5]; calculated from koff/kon, direct titration <1.0 pM, p113 states 3.8 fM",14.43
same,pKd,[6]; room temp,9.74
TCTGCAAGGGTTCAGTGCGTGGGCGGTAAG (double strand) [N//Z site],pKd,"[5]; calculated from koff/kon, direct titration <1.0 pM",14.52
